# Target: stomach proteases of BALB/c mice
# Test: cell-based or functional assay
substance,measurement,value
"non-lipidated Omp19S polypeptide of Brucella abortus, recombinant from E. coli, with a histidine tai (from UniProt P0A3P1 22-177)",inhibitory effect on the action of stomach proteases,> 30%

# Reference: US20120258145A1
